Data from US20250263475A1 (AGENCY FOR SCIENCE TECHNOLOGY AND RESEARCH, published 2025).
Ends that are not written are not given here. * marks the point of attachment. Biotin = O=C1N[C@H]2[C@H](CS[C@H]2CCCCC(=O)*)N1

Tests used:
[1] = molecular target: T1, human p53 wild-type full length protein (human, UniProt P04637 1-393); assay: ELISA on coated full-length protein
T1 construct: Full length recombinant protein in ELISA; expressed in transfected H1299 cells or endogenous in MCF7/A549 cells and tumour samples in blots, IP, IF and IHC; also called wildtype p53; WT HP53

[2] = molecular target: T2, mouse p53 wild-type full length protein (mouse, UniProt P02340 1-390); assay: ELISA on coated full-length protein
T2 construct: mature; Full length protein in ELISA; also called wildtype mouse p53; p53 of wild-type MEFs

SEQ ID NO 109 = molecular target: T3, SEQ ID NO 109; assay: phage display: peptide captured by the antibody from an M13 random 12-mer library (FIG. 7B = clone 4H2 by paragraph 523)
T3 peptide: INTPRDWAYGGL

SEQ ID NO 104 = molecular target: T4, SEQ ID NO 104; assay: as above
T4 peptide: ELWQNVRPFLWV

SEQ ID NO 108 = molecular target: T5, SEQ ID NO 108; assay: as above
T5 peptide: SNTPHWPGRPGI

SEQ ID NO 106 = molecular target: T6, SEQ ID NO 106; assay: as above
T6 peptide: SSRPMAHWPIKV

SEQ ID NO 105 = molecular target: T7, SEQ ID NO 105; assay: as above
T7 peptide: SRPADHWPRHNE

ELWQNVRPFLWV = molecular target: T8, ELWQNVRPFLWV; assay: phage display, random 12-mers on M13 pIII, panning on the antibody
T8 construct: also called line 1 under 4H2
T8 peptide: ELWQNVRPFLWV

SSRPMAHWPIKV = molecular target: T9, SSRPMAHWPIKV; assay: as above
T9 construct: also called line 3 under 4H2
T9 peptide: SSRPMAHWPIKV

SNTPHWPGRPGI = molecular target: T10, SNTPHWPGRPGI; assay: as above
T10 construct: also called line 5 under 4H2
T10 peptide: SNTPHWPGRPGI

SRPADHWPRHNE = molecular target: T11, SRPADHWPRHNE; assay: as above
T11 construct: also called line 2 under 4H2
T11 peptide: SRPADHWPRHNE

267 RNSFEVHVCACPG 279 = molecular target: T12, 267 RNSFEVHVCACPG 279 (not fully specified; cysteine pairing not given here); assay: ELISA on biotinylated 13-mer on streptavidin plate, antibody 1 ug/ml, O.D. 650 nm
T12 construct: also called unsubstituted 13-mer of the alanine scan on R273H
T12 peptide: Biotin-RNSFEVHVCACPG

SEQ ID NO 113 = molecular target: T13, SEQ ID NO 113; assay: phage display: peptide captured by the antibody from an M13 random 12-mer library (FIG. 7C = clone 13E4 by paragraph 523)
T13 peptide: GKTYSYHMQLYT

SEQ ID NO 115 = molecular target: T14, SEQ ID NO 115; assay: as above
T14 peptide: YNTFPYHLGYTL

SEQ ID NO 117 = molecular target: T15, SEQ ID NO 117; assay: as above
T15 peptide: TFVHGNTWTIVN

SEQ ID NO 114 = molecular target: T16, SEQ ID NO 114; assay: as above
T16 peptide: YHVGGILGRLFM

SEQ ID NO 116 = molecular target: T17, SEQ ID NO 116; assay: as above
T17 peptide: DNASSSKVHHGH

DNASSSKVHHGH = molecular target: T18, DNASSSKVHHGH; assay: phage display, random 12-mers on M13 pIII, panning on the antibody
T18 construct: also called line 2 under 13E4
T18 peptide: DNASSSKVHHGH

YNTFPYHLGYTL = molecular target: T19, YNTFPYHLGYTL; assay: as above
T19 construct: also called line 5 under 13E4
T19 peptide: YNTFPYHLGYTL

GKTYSYHMQLYT = molecular target: T20, GKTYSYHMQLYT; assay: as above
T20 construct: also called line 4 under 13E4
T20 peptide: GKTYSYHMQLYT

YHVGGILGRLFM = molecular target: T21, YHVGGILGRLFM; assay: as above
T21 construct: also called line 3 under 13E4
T21 peptide: YHVGGILGRLFM

TFVHGNTWTIVN = molecular target: T22, TFVHGNTWTIVN; assay: as above
T22 construct: also called line 1 under 13E4
T22 peptide: TFVHGNTWTIVN

WSVPPGRHIHYS = molecular target: T23, WSVPPGRHIHYS; assay: as above
T23 construct: also called lines 4 and 5 under 3G11
T23 peptide: WSVPPGRHIHYS

FSVRPFHYAQDN = molecular target: T24, FSVRPFHYAQDN; assay: as above
T24 construct: also called line 8 under 3G11
T24 peptide: FSVRPFHYAQDN

FSVPSGHYIRAN = molecular target: T25, FSVPSGHYIRAN; assay: as above
T25 construct: also called line 10 under 3G11
T25 peptide: FSVPSGHYIRAN

FSVPFDRIQETP = molecular target: T26, FSVPFDRIQETP; assay: as above
T26 construct: also called line 7 under 3G11
T26 peptide: FSVPFDRIQETP

SSTHYSWSLMDA = molecular target: T27, SSTHYSWSLMDA; assay: as above
T27 construct: also called line 1 under 3G11
T27 peptide: SSTHYSWSLMDA

GPSCHYCFTGLP = molecular target: T28, GPSCHYCFTGLP; assay: as above
T28 construct: also called lines 2 and 3 under 3G11
T28 peptide: GPSCHYCFTGLP

FSVRPYDPQIEN = molecular target: T29, FSVRPYDPQIEN; assay: as above
T29 construct: also called line 9 under 3G11
T29 peptide: FSVRPYDPQIEN

SEQ ID NO 142 = molecular target: T30, SEQ ID NO 142; assay: phage display: peptide captured by the antibody (FIG. 8B taken as clone 3G11 by paragraph 561)
T30 peptide: FSVRPYDPQIEN

SEQ ID NO 137 = molecular target: T31, SEQ ID NO 137; assay: as above
T31 peptide: GPSCHYCFTGLP

SEQ ID NO 136 = molecular target: T32, SEQ ID NO 136; assay: as above
T32 peptide: SSTHYSWSLMDA

SEQ ID NO 141 = molecular target: T33, SEQ ID NO 141; assay: as above
T33 peptide: FSVPFDRIQETP

SEQ ID NO 140 = molecular target: T34, SEQ ID NO 140; assay: as above
T34 peptide: FSVRPFHYAQDN

SEQ ID NO 139 = molecular target: T35, SEQ ID NO 139; assay: as above
T35 peptide: FSVPSGHYIRAN

SEQ ID NO 138 = molecular target: T36, SEQ ID NO 138; assay: as above
T36 peptide: WSVPPGRHIHYS

B1: anti-R248Q p53 antibody clone 4H2 (antibody, V domains shown)
VH: QVQLKQSGPELVKPGASVKMSCKASGYTFTDYYLKWVRQSHGKSLEWIGDIDPKNGGTNYNQKFKGKATLTVDKSSSTAYMQLNSLTSEDSAVYYCAKQGGFDDYWGQGTTLTVSS
VL: not shown
notes: Mouse monoclonal antibody from hybridoma
[1]
  binding result: no binding (tested: neat supernatant)
[2]
  binding result: no binding (tested: neat supernatant)
SEQ ID NO 109
  binding result: binds
SEQ ID NO 104
  binding result: binds
SEQ ID NO 108
  binding result: binds
SEQ ID NO 106
  binding result: binds
SEQ ID NO 105
  binding result: binds
ELWQNVRPFLWV
  binding result: binds
SSRPMAHWPIKV
  binding result: binds
SNTPHWPGRPGI
  binding result: binds
SRPADHWPRHNE
  binding result: binds

B2: anti-R273H p53 antibody clone 13E4 (antibody, V domains shown)
VH: EVQLLETGGDLVTPGGSLKLSCAASGFSFSDYYMYWVRQTPEKRLEWVATISVGGTYTFYSDNVKGRFVISRDNARKNLHLEMNSLKSEDAAMYYCVRDGNDGKFLGYWGQGTFVTVTV
VL: DIVMTQSPLSLPVNLGDQVSLSCRSSQSIVHNNGDTYLEWYLQKPGQSPKLLIYKVSNRFSGVPDRFSGSGSGTDFTLKISRVEAEDLGIYYCFQGSHLPLTFGSGTKLELK
notes: Mouse monoclonal antibody from hybridoma; also called 13E4 mAb
267 RNSFEVHVCACPG 279
  binding result: binds
SEQ ID NO 113
  binding result: binds
SEQ ID NO 115
  binding result: binds
SEQ ID NO 117
  binding result: binds
SEQ ID NO 114
  binding result: binds
SEQ ID NO 116
  binding result: binds
DNASSSKVHHGH
  binding result: binds
YNTFPYHLGYTL
  binding result: binds
GKTYSYHMQLYT
  binding result: binds
YHVGGILGRLFM
  binding result: binds
TFVHGNTWTIVN
  binding result: binds

B3: anti-R248Q p53 antibody clone 3G11 (antibody, V domains shown)
VH: DVQLQQSGPELVKPGASVKMSCKASGYTFTDYYVKWVKQSPGQSLEWIGDIHPKNGGTNYNQKFKGKAALTVDKSSSTAYMQLNSLTSEDSAVYFCAKMGGYDDYWGQGTTLTVSS
VL: not shown
WSVPPGRHIHYS
  binding result: binds
FSVRPFHYAQDN
  binding result: binds
FSVPSGHYIRAN
  binding result: binds
FSVPFDRIQETP
  binding result: binds
SSTHYSWSLMDA
  binding result: binds
GPSCHYCFTGLP
  binding result: binds
FSVRPYDPQIEN
  binding result: binds
SEQ ID NO 142
  binding result: binds
SEQ ID NO 137
  binding result: binds
SEQ ID NO 136
  binding result: binds
SEQ ID NO 141
  binding result: binds
SEQ ID NO 140
  binding result: binds
SEQ ID NO 139
  binding result: binds
SEQ ID NO 138
  binding result: binds
[2]
  binding result: no binding (tested: neat supernatant)

B4: mouse human chimeric anti-R248Q p53 antibody clone MH 3G11 (antibody, V domains shown)
VH: B3 VH
VL: not shown
notes: also called chimeric 3G11
[2]
  binding result: no binding (tested: 1 ng/µl)

B5: mouse human chimeric anti-R248Q p53 antibody clone MH 4H2 (antibody, V domains shown)
VH: B1 VH
VL: not shown
notes: also called chimeric 4H2
[2]
  binding result: no binding (tested: 1 ng/µl)
